Among the data in US20090074779A1 (COPENHAGEN UNIVERSITY, published 2009) are Kd values, retold here.

What all share (experiment): SPR (BIAlite), receptor amine-coupled on CM4 chip, ligand injected, 25 C
The target of one assay is T1, P75 receptor (UniProt P08138 29-250, limits assumed).
T1 construct: also called p75NTR; p75(NTR)
T1 sequence (looked up): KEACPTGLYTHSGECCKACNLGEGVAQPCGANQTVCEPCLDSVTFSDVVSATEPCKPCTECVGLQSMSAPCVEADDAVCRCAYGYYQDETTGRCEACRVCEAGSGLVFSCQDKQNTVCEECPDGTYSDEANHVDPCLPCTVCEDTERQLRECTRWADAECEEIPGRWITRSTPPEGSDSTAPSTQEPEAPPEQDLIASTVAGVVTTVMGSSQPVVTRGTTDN
The procedure:
(§1) The TrkA, TrkB and TrkC receptors and p75^NTR were immobilized on a sensor chip, CM4, using an amine-coupling kit as follows: the chip was activated by 20 μl activation solution, N-hydroxysuccinimide, (NHS) and N-ethyl-N′-(3-[…])-carbodiimide (EDC), the protein was immobilized using 30 μl of a mixture of 4 μl (0.5 μg/ml) protein in 50 μl 10 mM sodium acetate buffer (pH 4.0); and the chip was blocked by 35 μl blocking solution (ethanolamine-HCl). The receptor surface was regenerated between ligand injections with 15 μl 2 mM NaCl or 10 mM glycine-HCl, pH 2.5. In the present experiments a flow rate of 5 μl/min was used.
(§2) The curve corresponding to the difference between binding to the Trk receptors or the […] receptor and a blank chip was used for analysis.

For a further assay, the target named is T2, TrkC (UniProt Q16288 32-429, limits assumed).
T2 construct: also called NTRK3; TrkC receptor
The procedure:
as §1, §2

A further assay addresses T3, TrkB (UniProt Q16620 32-430, limits assumed).
T3 construct: also called NTRK2; TrkB receptor
The procedure:
as §1, §2

The next assay deals with T4, TrkA (UniProt P04629 34-413, limits assumed).
T4 construct: also called NTRK1; TrkA receptor
T4 sequence (P04629 34-413 limits assumed): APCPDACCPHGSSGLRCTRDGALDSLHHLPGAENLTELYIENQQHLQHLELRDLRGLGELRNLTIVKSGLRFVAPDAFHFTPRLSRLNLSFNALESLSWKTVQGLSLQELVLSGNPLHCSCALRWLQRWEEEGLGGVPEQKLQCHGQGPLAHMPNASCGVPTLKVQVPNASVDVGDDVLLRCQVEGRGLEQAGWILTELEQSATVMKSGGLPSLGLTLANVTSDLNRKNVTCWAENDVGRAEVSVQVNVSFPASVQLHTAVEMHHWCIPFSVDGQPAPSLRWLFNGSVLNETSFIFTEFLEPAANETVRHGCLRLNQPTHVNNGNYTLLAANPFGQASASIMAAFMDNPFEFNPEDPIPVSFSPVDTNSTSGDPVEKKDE
The procedure:
as §1, §2

T3 sequence (Q16620 32-430 limits assumed): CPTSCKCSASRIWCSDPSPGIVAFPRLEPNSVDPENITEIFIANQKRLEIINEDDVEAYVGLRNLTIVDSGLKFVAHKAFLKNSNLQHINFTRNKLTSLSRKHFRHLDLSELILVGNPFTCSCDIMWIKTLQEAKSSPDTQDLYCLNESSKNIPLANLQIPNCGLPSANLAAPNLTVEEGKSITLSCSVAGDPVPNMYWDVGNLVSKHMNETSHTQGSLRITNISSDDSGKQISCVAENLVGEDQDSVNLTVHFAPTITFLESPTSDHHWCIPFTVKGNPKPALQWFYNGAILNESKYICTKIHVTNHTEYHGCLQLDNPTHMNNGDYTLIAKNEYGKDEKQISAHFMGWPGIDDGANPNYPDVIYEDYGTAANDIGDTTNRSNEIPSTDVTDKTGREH

Consider TFVKALTMDGKQAAWR (also called NGF derived peptide NGF-EE) [NGF-EE], for which the Kd is 226 nM in the assay with P75 receptor, 51.9 nM with TrkC and 10.3 nM in the assay with TrkB.
For RGIDSKHWNSY (also called NGF derived peptide NGF-E) [NGF-E], in that order: 2600 nM, 1060 nM and 254 nM.

B1: BDNF (ligand, UniProt P23560 129-247, looked up)
chain: HSDPARRGELSVCDSISEWVTAADKKTAVDMSGGTVTVLEKVPVSKGQLKQYFYETKCNPMGYTKEGCRGIDKRHWNSQCRTTQSYVRALTMDSKKRIGWRFIRIDTSCVCTLTIKRGR
notes: also called brain-derived neurotrophic factor
Consider B1, for which the Kd stood at 0.0584 nM in the assay with P75 receptor and 1.18 nM with TrkB.

B2: BDNF-EE (peptide)
peptide: SYVRALTMDSKKRIGWR
notes: also called BDNF derived peptide BDNF-EE
In the case of B2, the results for the Kd with P75 receptor, with TrkC and with TrkB were 110 nM, 166 nM and 38.7 nM, respectively.
For RGIDKRHWNSQ (also called BDNF derived peptide BDNF-E) [BDNF-E], in that order: 556 nM, 697 nM and 173 nM.
Consider CVLSRKAVRRA [NGF-C2], for which the Kd came out at 385 nM with P75 receptor, 658 nM in the assay with TrkC, 883 nM in the assay with TrkB and 727 nM with TrkA.

The Kd is the concentration at which binding is half-saturated. A low value points to higher affinity.
